Tests used:
[1] = molecular target: ACKR3_RlucII (N-terminally FLAG-tagged human ACKR3, residues 2–362, with a C-terminal fusion of Renilla luciferase II) (human) (UniProt P25106)
[2] = molecular target: purified ACKR3:CXCL12_(LRHQ) complex, ACKR3 phosphorylated in vitro by GRK5 (UniProt P25106); experiment: pull-down; 1.1 µM purified ACKR3:LRHQ complex phosphorylated by 1.1 µM GRK2 or GRK5 (1 mM ATP, 20 min, room temperature), 2.2 µM purified β-arrestin1 or 2 added for 40 min; captured on M2 anti-FLAG resin at 4°C, washed in 50 mM HEPES pH 7.5, 150 mM NaCl, LMNG/CHS, eluted with 3×FLAG peptide; SDS-PAGE band densities, arrestin as percent of ACKR3
[3] = molecular target: purified ACKR3:CXCL12_(LRHQ) complex, ACKR3 phosphorylated in vitro by GRK2 (UniProt P25106); experiment: as above

Sequence of CXCL12 (P48061 22-93): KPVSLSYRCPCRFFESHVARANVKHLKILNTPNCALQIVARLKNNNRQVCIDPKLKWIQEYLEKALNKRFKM

Substance	CXCL12 removed from the medium (25 nM CXCL12, 16 hours at 37°C) by WT HEK293A cells expressing ACKR3 RlucII, remaining chemokine by ELISA, against cells with empty vector [1] [%]	percent of the receptor complexed with β-arrestin [2] [%]	percent of the receptor complexed with β-arrestin [3] [%]
CXCL12 (from UniProt P48061 22-93) (ligand)	64		
bovine β-arrestin1 (from UniProt P17870 1-418) (natural protein)		49	
bovine β-arrestin2 (1–393) (from UniProt P32120 1-393) (domain or fragment)		73	14
